The supplement of paper PMC12764529
± gives the half width of the 95% confidence interval.

Key:
[1] = folding stability dG unfold (combined trypsin and chymotrypsin); higher = more stable
Outline: (§1)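 Digests were run with trypsin and chymotrypsin at 11 concentrations in threefold dilutions, plus a no-protease condition, on designed mini-proteins in a PA-tagged cDNA display construct. The mini-proteins were under 80 residues, had no cysteine, and were kept only when AlphaFold2 dimer inter-PAE was above 15. After sequencing, Bayesian fitting of the counts gave K50, from which unfolding free energy was derived against a sequence-predicted unfolded-state K50 and a shared folded-state K50, per protease or combined.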

[2] = folding stability dG unfold from chymotrypsin proteolysis; higher = more stable
Outline: as §1

[3] = folding stability dG unfold from trypsin proteolysis; higher = more stable
Outline: as §1

Sequence	folding stability dG unfold [1] [kcal/mol]	folding stability dG unfold [2] [kcal/mol]	folding stability dG unfold [3] [kcal/mol]
SAGGKKVVITLTAEELEELLKEGKPLTAEEIARRLLPPGAKVTVEVTYDPETKEVTVTVVIEVPEELESAGG [r13_862_TrROS_Hall]	2.22 ± 0.12	2.16 ± 0.21	2.27 ± 0.13
SAGGKKYKVKVVSVEYDKETKEVTVKVEFEDNKVVVEKKVKVKLPPVKIEFSEEDLKEGKVEIKIEFSAGGS [r16_809_TrROS_Hall]	2.27 ± 0.1	2.63 ± 0.049	1.46 ± 0.11
SAGGKKYYLIKITVKTEKKEYTLPDGSKVTVEKTYELTIIVESKEEAEKLAEELAKKYNLEVEIVPLSAGGS [r8_131_TrROS_Hall]	4.51 ± 0.13	4.83 ± 0.064	2.95 ± 0.13
SAGGKLAELKEILKKLGLPKIESIEEDPETGVLRFKASSSKPILVTVPVRSLGDGSRPIEVEIKSTNISAGG [r13_410_JUSTAS]	0.342 ± 0.18	0.448 ± 0.32	0.227 ± 0.24
SAGGKLPKGAKIVSVEFDKETKEIRIKVEFYDKNGKLIKTIEKTIKIKPKPKLSEEEKKKLEEEKKKSAGGS [r16_697_TrROS_Hall]	1.65 ± 0.23	1.46 ± 0.28	0.96 ± 0.18
SAGGKLTITVKVNENGELIATVEITEVVENAKPGDVLTVKAKVVNPKTKETKEIEAKIKVENGKLVLESAGG [r13_208_TrROS_Hall]	2.16 ± 0.12	2.33 ± 0.069	2.1 ± 0.077
SAGGKMTLKDIEIIEVIEKDGEIEVVLIRNKKTNKVIAIPREDLEKLLSLPEDVEVVRLRIKPGEKLSAGGS [r16_61_TrROS_Hall]	1.32 ± 0.18	1.34 ± 0.15	1.3 ± 0.07
SAGGKNLKPIGTVTLTNPKGEKVEIVEFEGPVFVVLTPKDGSKKIVSAEGKSLEEILKELEKEGYEVEPSAG [r5_613_TrMRF]	1.76 ± 0.15	2.15 ± 0.081	1.22 ± 0.061
SAGGKPKVYEFEITIEFKTKTKKDKNGKTYKVKKIKIKIKVKVVVDEENKKIYIFDENGKLIAEFELSAGGS [r16_92_TrROS_Hall]	3.72 ± 0.26	4.01 ± 0.13	3 ± 0.22
SAGGKPPKTVTVTLTLPDGVKITIEYNEETGEVTVTIEVFKDGKLVKTITITAPSLDEALEALKKLLSAGGS [r16_55_TrROS_Hall]	3.87 ± 0.13	4.19 ± 0.18	3.25 ± 0.23
SAGGKPPNLKIKIEVIPIPNGYWIITFRIKVPPNEPLKIRFPDFGREIEFPPGDEVTIMILIPPDDLSAGGS [r16_56_TrROS]	4.62 ± 0.35	4.8 ± 0.2	3.64 ± 0.2
SAGGKQEIEIPIPYKNGMPFRIRIEWEEDPNKPRLRIPIWAPNMPASNFAEEIKKELPPDIKDVEIWPSAGG [r13_404_TrROS]	0.0846 ± 0.64	0.0456 ± 0.72	0.685 ± 0.2
SAGGKSISFGKKAGKEKMKEAIKKGLKNIKIVVFKDGKPEVIEVKADDLDKVFDNIPEDSIVVFEPESAGGS [r16_636_TrMRF]	2.17 ± 0.17	2.19 ± 0.038	1.28 ± 0.06
SAGGKTIVVPEKDVEKLLKELEKLGFKVTKVERKDGYVTVTIEVEKDGKLEKIEIRIYRPEDLDKPPSAGGS [r8_307_TrROS_Hall]	2.01 ± 0.15	2.28 ± 0.06	1.1 ± 0.072
SAGGKTKTYTFVLEDPVKKGIPVLAKVTVTYEPDENGNEVAPANVVVYYPDGKPEVLKVDVSNITGTGSAGG [r13_787_TrMRF]	0.737 ± 0.06	1.11 ± 0.053	0.123 ± 0.13
SAGGKTKVINVKVKSIEELLEKLAKLPNVKKVEVKEVNGKKEITIEVDGKKIKITKNKDGYYSIEIFPSAGG [r13_907_TrROS_Hall]	2.25 ± 0.37	1.98 ± 0.34	2.16 ± 0.12
SAGGKTLVIKMKFKTKEEAEEAIKKLLEELGLPEGAKIEVTVERDENGELTVTITITVKDPEVLKALSAGGS [r8_85_TrROS_Hall]	2.48 ± 0.076	2.66 ± 0.036	2 ± 0.11
SAGGKTLYVRIIIENKKTGKKEEKIIKIKNVKTLDELLEKAKKEAEKKGYKIKKIEVYDKKTGKKLKLSAGG [r13_771_TrROS_Hall]	1.73 ± 0.39	1.28 ± 0.27	1.79 ± 0.088

Sequence	folding stability dG unfold [1] [kcal/mol]	folding stability dG unfold [2] [kcal/mol]	folding stability dG unfold [3] [kcal/mol]
SAGGKTTVLIITENPDGTPKAIPIPLDELDIEEIVELIKELVEEGRKLKVFVPADTPPELIKAIKEAASAGG [r13_251_TrMRF]	3.31 ± 0.056	3.2 ± 0.067	3.4 ± 0.087
SAGGKTVEIKVKVKSLEELKAAIEALKKAGIKDVKVTKIELEKNEDGSLYARVTIEVEPAPEVVEEKESAGG [r13_174_TrROS_Hall]	3.15 ± 0.2	3.08 ± 0.073	2.78 ± 0.095
SAGGKTVIIEGMSLEELLELIKNAKPGDTITITLKVKVEEYKYENGKLVEKKEFEKTLTLTLKIEEKESAGG [r13_632_TrROS_Hall]	4.1 ± 0.33	4.29 ± 0.19	2.57 ± 0.28
SAGGKTVLVPVKSPEEAKIFIENFPESYDKVIVFNPETGTKAVFYIDPKTREVKEVKVEKFDLNDPNASAGG [r13_945_TrMRF]	1.12 ± 0.066	1.22 ± 0.052	0.913 ± 0.017
SAGGKTVTIKVTRPDGKELTIEFEEKDGKVTVRVFDKDGKLVKEIEVDSLEEALKALEEAGYEVEVVPSAGG [r13_315_TrROS_Hall]	3.42 ± 0.2	3.36 ± 0.15	3.49 ± 0.22
SAGGKTVTITVPEGMTEEEVKALAEKLIEEGFKEVTVTVTRTKTETLPNGKTKTVTETKTYVFKLPPSAGGS [r16_44_TrROS_Hall]	3.88 ± 0.088	4.062 ± 0.036	3.45 ± 0.092
SAGGKTYTIVLPIPPNVPLEEYIKKIEKLLKKLKKNVPISFNKQKKLPNGYYLINFTLTDNKVTGFGSAGGS [r8_7_TrMRF]	1.72 ± 0.18	1.91 ± 0.12	1.06 ± 0.059
SAGGKVAAPAQPLASTKVERTTLPTGTTVTYVTVTSSAVPTPTTYTFSPGENPGDFAAATGLPVTLVSAGGS [r16_676_JUSTAS]	0.126 ± 0.092	0.339 ± 0.083	-0.488 ± 0.29
SAGGKVEVETKAYFIPETGEVVLLTTVRVETDEEPSEEERENLPEGATRTETFTFVFVFPAKPGSLLSAGGS [r8_274_TrMRF]	3.19 ± 0.092	3.52 ± 0.044	2.46 ± 0.064
SAGGKVKILKTEVFEEGDYLKIVDFVEVDSLEEIEELVKNGLENVEAEVRLLPDGRLLVVLVAEIPKESAGG [r13_506_TrMRF]	1.36 ± 0.04	1.4 ± 0.026	1.26 ± 0.031
SAGGKVKVEIDPKTIKVTFYDEKGKKIGEIEIEVKPLPIVIENIPLEDIEALKEKFPDIPIIINPDNISAGG [r13_235_TrMRF]	1.83 ± 0.2	1.73 ± 0.17	2.47 ± 0.22
SAGGKVLVFYAPSPELIEKWAKELGLKLKKVSKEGDKFVAEFELPSGEKVLVVADEEAFKKLGIDPEKISAG [r5_12_TrMRF]	3.74 ± 0.18	4.09 ± 0.12	2.93 ± 0.1
SAGGKVVPILIEGELTAEEIKALIPPGELAVLYDLETGEVRVFSPEDLDKIPSDVPLRFLLLIFRPDSAGGS [r8_66_TrMRF]	3.92 ± 0.11	4.31 ± 0.058	2.93 ± 0.051
SAGGKVVPKNVKLPVTKEAEELAKKLAPELGYKKAEVKVKSAVEGYVKVEIYFPETGKKVEITVPVGSAGGS [r16_281_TrMRF]	0.739 ± 0.07	1.04 ± 0.025	-0.0217 ± 0.086
SAGGKWIMFMIPPGEEIEDPNGLEIRYDPEEGEFEIENNKRPVKIPVHPHPDGWYMITIEIPPGVEVSAGGS [r16_245_TrROS]	1.55 ± 0.22	1.12 ± 0.23	1.5 ± 0.074
SAGGKWRTIQLPGISIQLNPKDGTITVMMPSDMMEELKEAFGPGFEIDEIHHHPDGWMQMTIPIKPPSAGGS [r8_415_TrROS]	1.57 ± 0.15	1.75 ± 0.11	1.18 ± 0.035
SAGGKYKVEIIDPKEGEKVFIEIDEETKKITIWNAKTGEKVAEFEIKDLKEGDTITLPNGFVIKIEKESAGG [r13_720_TrROS_Hall]	4.61 ± 0.12	4.67 ± 0.079	3.67 ± 0.14
